The results in this text go back to publication PMC12148503, “Molecular Basis of Interchain Disulfide Bond Formation in BMP-9 and BMP-10” (Journal of molecular biology, 2025).

Series [1] deals with the molecule itself. Kind of series: non-reducing SDS-PAGE with densitometry; IMAC-purified pro-proteins from expi293 conditioned medium, non-reduced against reduced; bands of disulfide-linked dimer and monomer.
Series [2] concerns the molecule itself. Kind of series: crystal structure; BMP-9 disulfide-linked dimers (wild type and mutants) at neutral pH; 1 M NaCl, glycerol, 0.1 M HEPES pH 7.4; multi-crystal data split into fractions.

B1: Pro-(fr)-Act-A (natural protein, human, UniProt P08476 27-426, looked up)
chain: EGHSAAPDCPSCALAALPKDVPNSQPEMVEAVKKHILNMLHLKKRPDVTQPVPKAALLNAIRKLHVGKVGENGYVEIEDDIGRRAEMNELMEQTSEIITFAESGTARKTLHFEISKEGSDLSVVERAEVWLFLKVPKANRTRTKVTIRLFQQQKHPQGSLDTGEEAEEVGLKGERSELLLSEKVVDARKSTWHVFPVSSSIQRLLDQGKSSLDVRIACEQCQESGASLVLLGKKKKKEEEGEGKKKGGGEGGAGADEEKEQSHRPFLMLQARQSEDHPHRRRRRGLECDGKVNICCKKQFFVSFKDIGWNDWIIAPSGYHANYCEGECPSHIAGTSGSSLSFHSTVINHYRMRGHSPFANLKSCCVPTKLRPMSMLYYDDGQNIIKKDIQNMIVEECGCS
notes: Human proINHBA residues 27-426; The results call it N-terminally histidine-tagged and purified by that tag; the methods say 'with no tag or processing site'; Furin processing incomplete; also called Pro-Activin-A; Pro-Act-A; source: expi293 (suspension HEK293), secreted; purified from conditioned medium by the histidine tag (IMAC); not shown: His tag, N-terminal, kept
In the case of B1, the binding result in series [1] is “binds”.

B2: Pro-(fr)-TGF-β2 (natural protein, human, UniProt P61812-1 19-414, looked up)
chain: LSLSTSSTLDMDQFMRKRIEAIRGQILSKLKLTSPPEDYPEPEEVPPEVISIYNSTRDLLQEKASRRAAACERERSDEEYYAKEVYKIDMPPFFPSENAIPPTFYRPYFRIVRFDVSAMEKNASNLVKAEFRVFRLQNPKARVAEQRIELYQILKSKDLTSPTQRYIDSKVVKTRAEGEWLSFDVTDAVHEWLHHKDRNLGFKISLHCPCCTFVPSNNYIIPNKSEELEARFAGIDGTSTYTSGDQKTIKSTRKKNSGKTPHLLLMLLPSYRLESQQTNRRKKRALDAAYCFRNVQDNCCLRPLYIDFKRDLGWKWIHEPKGYNANFCAGACPYLWSSDTQHSRVLSLYNTINPEASASPCCVSQDLEPLTILYYIGKTPKIEQLSNMIVKSCKCS
notes: Human proTGF-β2 residues 19-414; Behind the mouse Ig signal peptide and the 8xHis tag, no processing site after the tag; Furin processing incomplete; also called Pro-TGF-β2; source: expi293 (suspension HEK293), secreted; purified from conditioned medium by the histidine tag (IMAC); not shown: 8xHis, N-terminal, kept
Take B2: the binding result in series [1] was “binds”.

B3: BMP-9 G389S, K357R disulfide-linked dimer (ligand, human, UniProt Q9UK05 320-429, looked up)
chain: SSGAGSHCQKTSLRVNFEDIGWDSWIIAPKEYEAYECRGGCFFPLADDVTPTKHAIVQTLVHLKFPTKVSKACCVPTKLSPISVLYKDDMGVPTLKYHYEGMSVAECGCR
modifications: interchain disulfide Cys-392 to Cys-392'
notes: Human BMP-9 growth factor released by factor Xa from the G389S, K357R mutant of Pro-(X)-BMP-9 (proBMP9 residues 23-429, A321S, RRKR replaced by IEGR); also called BMP-9 double-mutant; BMP-9 G389S K357R Dimer; source: expi293 (suspension HEK293), secreted as Pro-(X)-BMP-9 mutant; IMAC, factor Xa digestion, C18 reverse phase
B3: the binding result in series [2] is listed as “binds”.

B4: BMP-9 G389S disulfide-linked dimer (ligand, human, UniProt Q9UK05 320-429, looked up)
chain: SSGAGSHCQKTSLRVNFEDIGWDSWIIAPKEYEAYECKGGCFFPLADDVTPTKHAIVQTLVHLKFPTKVSKACCVPTKLSPISVLYKDDMGVPTLKYHYEGMSVAECGCR
modifications: interchain disulfide Cys-392 to Cys-392'
notes: Human BMP-9 growth factor released by factor Xa from the G389S mutant of Pro-(X)-BMP-9 (proBMP9 residues 23-429, A321S, RRKR replaced by IEGR); also called BMP-9 G389S Dimer; source: expi293 (suspension HEK293), secreted as Pro-(X)-BMP-9 mutant; IMAC, factor Xa digestion, C18 reverse phase
B4: the binding result in series [2] was “binds”.

B5: Pro-(fr)-BMP-9 (natural protein, human, UniProt Q9UK05 23-429, looked up)
chain: KPLQSWGRGSAGGNAHSPLGVPGGGLPEHTFNLKMFLENVKVDFLRSLNLSGVPSQDKTRVEPPQYMIDLYNRYTSDKSTTPASNIVRSFSMEDAISITATEDFPFQKHILLFNISIPRHEQITRAELRLYVSCQNHVDPSHDLKGSVVIYDVLDGTDAWDSATETKTFLVSQDIQDEGWETLEVSSAVKRWVRSDSTKSKNKLEVTVESHRKGCDTLDISVPPGSRNLPFFVVFSNDHSSGTKETRLELREMISHEQESVLKKLSKDGSTEAGESSHEEDTDGHVAAGSTLARRKRSSGAGSHCQKTSLRVNFEDIGWDSWIIAPKEYEAYECKGGCFFPLADDVTPTKHAIVQTLVHLKFPTKVGKACCVPTKLSPISVLYKDDMGVPTLKYHYEGMSVAECGCR
notes: Human proBMP9 residues 23-429 with the natural furin site; Partially processed by furin: the sample holds unprocessed pro-protein, prodomain and growth factor (12 and 24 kDa); also called Pro-BMP-9 with unmodified furin processing site; wild-type BMP-9; source: expi293 (suspension HEK293), secreted; purified from conditioned medium by IMAC; not shown: 8xHis, N-terminal, kept
Take B5: in series [1], the binding result is reported as “binds”.

B6: Pro-(X)-BMP-9 G389S, K357R (natural protein, human, UniProt Q9UK05 23-429, looked up)
chain: KPLQSWGRGSAGGNAHSPLGVPGGGLPEHTFNLKMFLENVKVDFLRSLNLSGVPSQDKTRVEPPQYMIDLYNRYTSDKSTTPASNIVRSFSMEDAISITATEDFPFQKHILLFNISIPRHEQITRAELRLYVSCQNHVDPSHDLKGSVVIYDVLDGTDAWDSATETKTFLVSQDIQDEGWETLEVSSAVKRWVRSDSTKSKNKLEVTVESHRKGCDTLDISVPPGSRNLPFFVVFSNDHSSGTKETRLELREMISHEQESVLKKLSKDGSTEAGESSHEEDTDGHVAAGSTLAIEGRSSGAGSHCQKTSLRVNFEDIGWDSWIIAPKEYEAYECRGGCFFPLADDVTPTKHAIVQTLVHLKFPTKVSKACCVPTKLSPISVLYKDDMGVPTLKYHYEGMSVAECGCR
notes: Human proBMP9 residues 23-429; mutant based on Pro-(X)-BMP-9; also called G389S, K357R BMP-9; BMP-9 double mutant; source: expi293 (suspension HEK293), secreted; purified from conditioned medium by IMAC; not shown: 8xHis, N-terminal, kept
As for B6, the binding result in series [1] is on record as “binds”.
